Biological target: the molecule itself
Test: crystal structure; anti-IL-17A-76 and IL-17A mixed at molar ratio 2.3:1, complex isolated on Superdex G-75; vapor diffusion at 297 K; 2.85 A; molecular replacement with 4HSA and 6QKD

B1: IL-17A (interleukin-17A) without N-signal sequence, double mutation N68D/C129S (ligand, UniProt Q16552 24-155, looked up)
chain: GITIPRNPGCPNSEDKNFPRTVMVNLNIHNRNTNTNPKRSSDYYDRSTSPWNLHRNEDPERYPSVIWEAKCRHLGCINADGNVDYHMNSVPIQQEILVLRREPPHSPNSFRLEKILVSVGCTCVTPIVHHVA
notes: Dimer in the crystal (monomer in the asymmetric unit, molecules A and A*); also called the cytokine
binding result: binds
